Molecular target: T1, ERO1α (Homo sapiens, UniProt Q96HE7)
T1 sequence (Q96HE7 24-468): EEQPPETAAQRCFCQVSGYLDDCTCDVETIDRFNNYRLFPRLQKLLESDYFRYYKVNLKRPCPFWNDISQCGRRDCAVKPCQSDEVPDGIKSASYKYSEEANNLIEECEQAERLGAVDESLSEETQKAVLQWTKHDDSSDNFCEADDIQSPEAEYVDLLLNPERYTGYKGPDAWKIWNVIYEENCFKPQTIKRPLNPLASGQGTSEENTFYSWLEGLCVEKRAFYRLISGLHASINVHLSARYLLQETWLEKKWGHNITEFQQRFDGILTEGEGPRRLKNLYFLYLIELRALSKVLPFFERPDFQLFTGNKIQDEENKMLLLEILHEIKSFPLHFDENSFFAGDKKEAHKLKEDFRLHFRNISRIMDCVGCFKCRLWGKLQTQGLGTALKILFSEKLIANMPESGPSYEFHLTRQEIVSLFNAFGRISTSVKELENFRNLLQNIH
Assay: Bio-layer interferometry, STIM1 on biotinylated ERO1α biosensor
Format: binding
Description: FIG. 11(A-Q) is an exemplary embodiment of ERO1α (endoplasmic reticulum oxidoreductase 1α) regulating the function of Ca^2+ signaling molecules, STIM1 (stromal interaction molecule 1) and SERCA2 (sarco/endoplasmic reticulum Ca^2+ ATPase 2), and enhancing cytosolic Ca^2+ levels during platelet activation in accordance with the present disclosure. FIG. 11A: Mass spectrometric analysis was performed to identify proteins interacting with ERO1α in resting and thrombin-activated human platelets. […] FIG. 11B and FIG. 11C: Immunoprecipitation of ERO1α with lysates of resting and thrombin (Thr)-activated human platelets, followed by immunoblotting and densitometry. FIG. 11(D-F): Ca^2+ release and influx of wild type (WT) and Ero1α-null platelets were assessed in response to 0.1 U/mL thrombin, 2 μM A23187, or 20 μM thapsigargin (TG), followed by the addition of 1 mM CaCl2. The Ca^2+ signal was quantified by the area under the curve (AUC). […] After incubation with a different concentration of wtSTIM1 and mutant STIM1 (mSTIM1), the specific interaction between ERO1α and STIM1 was measured by subtracting the nonspecific binding. The dissociation constant, KD, was calculated from the Kon and Koff values. […] Please note that the unmodified peptide was not detected. […] P values determined by unpaired Student t test. […]

- KD, ERO1α binding to STIM1: minimal and not concentration dependent
B1: mutant STIM1: STIM1 with Cys49 and Cys56 mutated to Ser (protein)
chain: LSHSHSEKATGTSSGANSEESTAAEFSRIDKPLSHSEDEKLSFEAVRNIHKLMDDDANGDVDVEESDEFLREDLNYHDPTVKHSTFHGEDKLISVEDLWKAWKSSEVYNWTVDEVVQWLITYVELPQYEETFRKLQLSGHAMPRLAVTNTTMTGTVLKMTDRSHRQKLQLKALDTVLFGPPLLTRHNHLKD

Reference: patent publication US20240366624A1, “METHODS AND COMPOSITIONS FOR TREATING THROMBOTIC DISEASE” (Washington University, priority 2023, published 2024)
